In patent US20260116963A1 (GENERATE BIOMEDICINES, published 2026):
Where a chain is given by its changes, count along the chain named. One block for each binder: values may come before it.

How the values were obtained:
[1] = target: T1, human FcγRI (human, UniProt P12314 16-288, limits assumed, biotinylated (site not stated)); assay: BLI (summary of Example 8)
[2] = target: T2, human FcγRIIa-H167 (human, UniProt P12318 36-218, limits assumed, biotinylated (site not stated)); assay: BLI (summary of Example 8)
T2 sequence (looked up): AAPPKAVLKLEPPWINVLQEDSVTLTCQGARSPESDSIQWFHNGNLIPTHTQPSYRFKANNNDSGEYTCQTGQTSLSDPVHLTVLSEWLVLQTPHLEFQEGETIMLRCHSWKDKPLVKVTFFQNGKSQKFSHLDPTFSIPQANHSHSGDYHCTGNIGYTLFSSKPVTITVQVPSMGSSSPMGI

[3] = target: T3, human FcγRIIa-R167 (human, UniProt P12318 36-218, limits assumed, biotinylated (site not stated)); assay: BLI (summary of Example 8)
T3 sequence (looked up): T2 sequence (looked up) with H132R

[4] = target: T4, human FcγRIIb (human, UniProt P31994 46-217, limits assumed, biotinylated (site not stated)); assay: BLI (summary of Example 8)
T4 sequence (looked up): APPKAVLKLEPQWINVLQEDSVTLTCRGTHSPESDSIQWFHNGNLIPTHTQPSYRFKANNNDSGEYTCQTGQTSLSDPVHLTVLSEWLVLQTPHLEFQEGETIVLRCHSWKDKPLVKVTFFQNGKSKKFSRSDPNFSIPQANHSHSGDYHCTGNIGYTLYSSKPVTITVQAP

[5] = target: T5, human IL-13 (human, UniProt P35225 25-146, limits assumed); assay: cell-based or functional assay
[6] = target: T5, human IL-13; assay: cell-based or functional assay; remark: listed apart in the source
[7] = target: cynomolgus IL-13 (cynomolgus, UniProt Q0PW92 21-132); assay: cell-based or functional assay
[8] = target: T6, HIS-tagged human FcRn (human, UniProt P55899 24-297; P61769 21-119); assay: SPR (Biacore 8K+), pH 6.0, 25 C, steady-state fit
T6 construct: not shown: HIS tag

[9] = target: human FcγRIIIb-NA1 (human, UniProt O75015 17-200, limits assumed, biotinylated (site not stated)); assay: BLI (Octet RH96), biotinylated Fcγ receptor on streptavidin sensors
[10] = target: human FcγRIIIb-NA2 (human, UniProt O75015 17-200, limits assumed, biotinylated (site not stated)); assay: as above
[11] = target: human FcγRIIIa-V176 (human, UniProt P08637 17-208, biotinylated (site not stated)); assay: BLI (Octet RH96), biotinylated Fcγ receptor on streptavidin sensors, antibody at 10,000 nM
[12] = target: human FcγRIIIa-F176 (human, UniProt P08637 17-208, biotinylated (site not stated)); assay: as above
[13] = target: T7, mouse IL-13 (mouse, UniProt P20109 19-131, limits assumed); assay: SPR (Biacore 8K+), antibody captured on anti-human IgG Fc chip, IL-13 as analyte, 25 C
T7 construct: also called recombinant mouse IL-13
T7 sequence (looked up): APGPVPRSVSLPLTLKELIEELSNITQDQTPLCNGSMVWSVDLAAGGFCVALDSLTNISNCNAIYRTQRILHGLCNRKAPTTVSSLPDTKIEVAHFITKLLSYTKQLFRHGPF

[14] = target: T5, human IL-13; assay: SPR (Biacore 8K+), antibody captured on anti-human Fc CM4 chip, human IL-13 0.6-10 nM as analyte, 37 C, 1:1 fit
[15] = target: T6, HIS-tagged human FcRn; assay: SPR (Biacore 8K+), antibody captured on anti-human Fab CM4 chip, HIS-tagged human FcRn 9.8-5000 nM as analyte, pH 6.0, 25 C, steady-state fit
[16] = target: T5, human IL-13; assay: cell-based or functional assay; remark: listed apart in the source
[17] = target: T5, human IL-13; assay: KinExA, solution equilibrium, free antigen captured on Ref1-coated beads, 25 C
[18] = target: T1, human FcγRI; assay: BLI (Octet RH96), biotinylated Fcγ receptor on streptavidin sensors, antibody at 10,000 nM
[19] = target: T2, human FcγRIIa-H167; assay: as above
[20] = target: T3, human FcγRIIa-R167; assay: as above
[21] = target: T4, human FcγRIIb; assay: as above
[22] = target: T5, human IL-13; assay: SPR (Biacore 8K+), antibody captured on anti-human pAb CM4 chip, human IL-13 0.6-10 nM as analyte, 37 C, 1:1 fit

Chain of cynomolgus IL-13 (Q0PW92 entry or part of it): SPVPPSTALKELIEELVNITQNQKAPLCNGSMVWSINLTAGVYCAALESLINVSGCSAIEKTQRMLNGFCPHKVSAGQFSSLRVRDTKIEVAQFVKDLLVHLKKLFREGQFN
T5 sequence (P35225 other isoform, or with tags, fused parts or gaps limits assumed): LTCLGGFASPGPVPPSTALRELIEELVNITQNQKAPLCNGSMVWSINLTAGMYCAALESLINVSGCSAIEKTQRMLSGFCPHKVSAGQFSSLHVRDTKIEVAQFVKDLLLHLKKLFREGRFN
T1 sequence (P12314 16-288 limits assumed): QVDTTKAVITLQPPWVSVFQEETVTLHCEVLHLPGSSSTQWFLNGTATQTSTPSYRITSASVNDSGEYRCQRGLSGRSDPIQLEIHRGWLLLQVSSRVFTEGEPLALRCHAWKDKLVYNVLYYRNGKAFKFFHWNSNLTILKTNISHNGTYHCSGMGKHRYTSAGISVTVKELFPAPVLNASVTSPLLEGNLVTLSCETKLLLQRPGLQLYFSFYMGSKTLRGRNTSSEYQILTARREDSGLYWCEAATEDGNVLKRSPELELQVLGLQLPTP
Chain of human FcγRIIIb-NA1 (O75015 other isoform, or with tags, fused parts or gaps limits assumed): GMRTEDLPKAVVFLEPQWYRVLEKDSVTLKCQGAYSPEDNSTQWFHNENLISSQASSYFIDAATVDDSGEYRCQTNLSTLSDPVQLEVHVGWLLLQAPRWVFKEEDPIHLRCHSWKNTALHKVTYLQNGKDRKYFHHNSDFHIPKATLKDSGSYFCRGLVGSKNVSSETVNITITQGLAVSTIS
Chain of human FcγRIIIa-F176 (P08637 17-208 limits assumed): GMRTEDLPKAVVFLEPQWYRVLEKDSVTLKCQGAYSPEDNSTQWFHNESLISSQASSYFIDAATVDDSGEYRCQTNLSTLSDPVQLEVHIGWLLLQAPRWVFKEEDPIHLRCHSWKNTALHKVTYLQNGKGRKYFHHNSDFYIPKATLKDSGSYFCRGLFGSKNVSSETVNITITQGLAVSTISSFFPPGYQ
Chain of human FcγRIIIb-NA2 (O75015 17-200 N65S limits assumed): as the sequence (O75015 other isoform, or with tags, fused parts or gaps limits assumed) above, with R20S, N49S, D66N, V90I counted along it
Chain of human FcγRIIIa-V176 (P08637 17-208 F176V limits assumed): as the sequence (P08637 17-208 limits assumed) above, with F160V counted along it

binding result [1]: binds
binding result [2]: binds
binding result [3]: binds
binding result [4]: binds
Mean IC50 (nM), HEK-Blue IL-4/IL-13 assay with 3.7 nM IL-13 [5]: 0.113 nM
Mean IC50 (nM) Donor 1, Phospho-STAT6 assay in human CD14+ monocytes [6]: 34.9 nM
Mean IC50 (nM) Donor 2, Phospho-STAT6 assay in human CD14+ monocytes [6]: 33 nM
Mean IC50 (nM) Donor 3, Phospho-STAT6 assay in human CD14+ monocytes [6]: 37.7 nM
Mean IC50 (nM) Donor 1, Phospho-STAT6 assay in cynomolgus CD14+ monocytes [7]: 18.8 nM
Mean IC50 (nM) Donor 2, Phospho-STAT6 assay in cynomolgus CD14+ monocytes [7]: 15.1 nM
Mean IC50 (nM) Donor 3, Phospho-STAT6 assay in cynomolgus CD14+ monocytes [7]: 18.1 nM
fold higher affinity than Ref2 [8]: 6 fold
binding result [9]: no binding (tested: 10,000 nM)
binding result [10]: no binding (tested: 10,000 nM)
binding result [11]: binds
binding result [12]: binds
binding result [13]: no binding
Kd [14]: 0.00722 nM
koff [14]: 4.85e-06 s⁻¹
kon [14]: 676000 M⁻¹ s⁻¹
Kd [15]: 129 nM
B1: AbAB (antibody, human IgG1, kappa)
heavy: QVTLRESGPALVKPTQTLTLTCTVSGASLSAYSVNWIRQPPGKALEWLAMIWGDGKIVYNSALKSRLTISKDTSKNQVVLTMTNMDPVDTATYYCAGDGYFPYAMDNWGQGSLVTVSSASTKGPSVFPLAPSSKSTSGGTAALGCLVKDYFPEPVTVSWNSGALTSGVHTFPAVLQSSGLYSLSSVVTVPSSSLGTQTYICNVNHKPSNTKVDKRVEPKSCDKTHTCPPCPAPEFEGGPSVFLFPPKPKDTLYITREPEVTCVVVDVSHEDPEVKFNWYVDGVEVHNAKTKPREEQYNSTYRVVSVLTVLHQDWLNGKEYKCKVSNKALPASIEKTISKAKGQPREPQVYTLPPSREEMTKNQVSLTCLVKGFYPSDIAVEWESNGQPENNYKTTPPVLDSDGSFFLYSKLTVDKSRWQQGNVFSCSVMHEALHNHYTQKSLSLSPGK
light: DIVMTQSPDSLSVSLGERATINCRASKSVDSYGNSYMHWYQQKPGQPPKLLIYLASNLESGVPDRFSGSGSGTDFTLTISSLQAEDVAVYYCQQNNEDPRTFGGGTKVEIKRTVAAPSVFIFPPSDEQLKSGTASVVCLLNNFYPREAKVQWKVDNALQSGNSQESVTEQDSKDSTYSLSSTLTLSKADYEKHKVYACEVTHQGLSSPVTKSFNRGEC
notes: same variable regions as AbG; also called Antibody AbAB

IC50, HEK-Blue IL-13Ra1/IL-4Ra STAT6-SEAP reporter assay [16]: 0.277 µg/mL
binding result [9]: no binding (tested: 10,000 nM)
binding result [10]: no binding (tested: 10,000 nM)
Kd [17]: 0.00909 nM
koff [17]: 9.76e-06 s⁻¹
kon [17]: 1.07e+06 M⁻¹ s⁻¹
binding result [18]: binds
binding result [19]: binds
binding result [20]: binds
binding result [21]: binds
binding result [12]: binds
binding result [13]: no binding
Kd [22]: 0.0512 nM
koff [22]: 3.22e-05 s⁻¹
kon [22]: 695000 M⁻¹ s⁻¹
Kd [15]: 734 nM
B2: Ref2 (antibody, human IgG4 S228P, kappa)
heavy: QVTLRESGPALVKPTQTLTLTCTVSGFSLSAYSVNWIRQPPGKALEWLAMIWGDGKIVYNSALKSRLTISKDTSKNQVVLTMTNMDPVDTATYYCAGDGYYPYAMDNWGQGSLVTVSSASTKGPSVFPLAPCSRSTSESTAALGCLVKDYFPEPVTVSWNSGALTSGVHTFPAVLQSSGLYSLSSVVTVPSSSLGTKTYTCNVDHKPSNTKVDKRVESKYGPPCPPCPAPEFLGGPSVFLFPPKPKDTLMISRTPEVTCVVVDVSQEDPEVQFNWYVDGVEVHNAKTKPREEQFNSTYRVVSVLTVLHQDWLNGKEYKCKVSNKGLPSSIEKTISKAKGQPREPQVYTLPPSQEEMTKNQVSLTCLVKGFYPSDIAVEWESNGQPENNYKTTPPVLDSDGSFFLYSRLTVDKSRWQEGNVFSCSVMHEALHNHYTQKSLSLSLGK
light: B1 light with Y36F
notes: hIgG4; copies: 2 + 2
